Source: US20260241018A1

Key:
[1] = molecular target: dog 5T4 expressed on CHO-S cells (CHO-d5T4 cells) (dog); assay: flow cytometry, CHO-d5T4 cells
[2] = molecular target: human 5T4 expressed on CHO-S cells (CHO-h5T4 cells) (human) (UniProt Q13641); assay: flow cytometry, CHO-h5T4 cells
[3] = molecular target: mouse 5T4 expressed on CHO-S cells (CHO-m5T4 cells) (mouse) (UniProt Q9Z0L0); assay: flow cytometry, CHO-m5T4 cells
[4] = molecular target: monkey (Macaca fascicularis) 5T4 expressed on CHO-S cells (CHO-fas5T4 cells) (monkey (Macaca fascicularis)) (UniProt Q4R8Y9); assay: flow cytometry, CHO-fas5T4 cells
Chain of monkey (Macaca fascicularis) 5T4 expressed on CHO-S cells (CHO-fas5T4 cells) (monkey (Macaca fascicularis)) (Q4R8Y9 35-355): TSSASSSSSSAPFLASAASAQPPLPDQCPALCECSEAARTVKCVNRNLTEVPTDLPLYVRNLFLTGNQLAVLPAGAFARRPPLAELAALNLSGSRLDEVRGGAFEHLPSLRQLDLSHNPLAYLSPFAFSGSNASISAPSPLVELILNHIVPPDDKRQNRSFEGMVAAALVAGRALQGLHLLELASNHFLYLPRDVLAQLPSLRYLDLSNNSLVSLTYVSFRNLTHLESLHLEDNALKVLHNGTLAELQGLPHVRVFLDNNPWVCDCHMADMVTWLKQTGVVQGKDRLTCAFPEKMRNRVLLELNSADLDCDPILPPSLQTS

Chain of dog 5T4 expressed on CHO-S cells (CHO-d5T4 cells) (dog) (chain, as listed by the source limits assumed): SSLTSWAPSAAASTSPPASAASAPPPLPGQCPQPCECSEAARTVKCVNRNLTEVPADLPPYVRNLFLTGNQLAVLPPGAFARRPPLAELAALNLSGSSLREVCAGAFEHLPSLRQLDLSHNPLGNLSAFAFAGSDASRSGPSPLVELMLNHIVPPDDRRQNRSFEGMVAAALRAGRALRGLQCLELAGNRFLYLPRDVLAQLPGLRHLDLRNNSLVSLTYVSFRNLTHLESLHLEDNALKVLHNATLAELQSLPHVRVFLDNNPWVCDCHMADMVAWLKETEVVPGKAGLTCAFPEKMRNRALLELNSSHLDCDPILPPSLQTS
Chain of mouse 5T4 expressed on CHO-S cells (CHO-m5T4 cells) (mouse) (Q9Z0L0 32-361): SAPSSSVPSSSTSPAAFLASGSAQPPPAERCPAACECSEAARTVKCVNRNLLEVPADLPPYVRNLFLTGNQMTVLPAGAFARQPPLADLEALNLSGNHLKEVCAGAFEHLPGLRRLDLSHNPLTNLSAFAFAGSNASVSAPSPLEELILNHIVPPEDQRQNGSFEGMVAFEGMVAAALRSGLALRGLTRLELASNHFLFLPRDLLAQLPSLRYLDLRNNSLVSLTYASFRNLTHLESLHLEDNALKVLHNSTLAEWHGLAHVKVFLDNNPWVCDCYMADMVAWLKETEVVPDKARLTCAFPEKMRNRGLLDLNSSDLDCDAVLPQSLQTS
Chain of human 5T4 expressed on CHO-S cells (CHO-h5T4 cells) (human) (Q13641 32-355): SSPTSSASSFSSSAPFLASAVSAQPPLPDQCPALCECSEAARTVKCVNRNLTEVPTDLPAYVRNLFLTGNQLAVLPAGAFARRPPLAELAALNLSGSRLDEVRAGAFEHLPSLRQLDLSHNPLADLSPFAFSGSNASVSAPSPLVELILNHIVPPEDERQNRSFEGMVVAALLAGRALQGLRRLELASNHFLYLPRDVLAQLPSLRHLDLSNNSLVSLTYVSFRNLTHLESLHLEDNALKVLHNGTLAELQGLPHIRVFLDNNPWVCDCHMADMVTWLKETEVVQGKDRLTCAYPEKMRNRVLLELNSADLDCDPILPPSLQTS

Row | Substance | Percentage of Positive Cells [1] | Percentage of Positive Cells [2] | Percentage of Positive Cells [3] | Percentage of Positive Cells [4]
1 | NC + secondary antibody | 0.2% | 2% | 0.2% | 1.6%
2 | NC | 1% | 1% | 0.7% | 1.3%
